Consider four molecules from patent US20250376490 (POSTECH RESEARCH AND BUSINESS DEVELOPMENT FOUNDATION, published 2025).

For series [1], the target named is SARS-CoV-2 spike RBD wild type (SARS-CoV-2, UniProt P0DTC2 SEQ:1-219). Nature of the series: flow.
Series [2] deals with Bovine serum albumin (Bos taurus, UniProt P02769 P02769:25-607). Nature of the series: flow. The following applies: tags: Sigma-Aldrich; bead-immobilised.
Bovine serum albumin, sequence (P02769 25-607, one chain of several): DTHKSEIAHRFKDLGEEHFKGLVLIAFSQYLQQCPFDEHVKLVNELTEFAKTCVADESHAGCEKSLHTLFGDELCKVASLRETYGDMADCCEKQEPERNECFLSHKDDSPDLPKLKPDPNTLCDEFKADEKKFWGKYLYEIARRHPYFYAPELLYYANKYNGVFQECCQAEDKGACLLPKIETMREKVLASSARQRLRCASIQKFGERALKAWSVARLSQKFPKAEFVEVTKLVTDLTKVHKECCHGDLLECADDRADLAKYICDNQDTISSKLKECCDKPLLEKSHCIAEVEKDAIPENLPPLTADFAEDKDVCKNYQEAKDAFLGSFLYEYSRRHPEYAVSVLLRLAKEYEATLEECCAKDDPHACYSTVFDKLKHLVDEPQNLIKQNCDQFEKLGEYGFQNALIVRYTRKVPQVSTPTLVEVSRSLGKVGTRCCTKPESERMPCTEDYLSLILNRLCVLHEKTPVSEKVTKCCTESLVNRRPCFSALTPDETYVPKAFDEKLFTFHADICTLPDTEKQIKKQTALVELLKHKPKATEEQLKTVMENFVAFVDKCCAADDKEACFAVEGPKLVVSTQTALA

B1: CoV2-6C3 (ssDNA)
DNA: CGCAGCACCCAAGAACAAGGACTGCTTAGGATTGCGATAGGTTCGG
B1: the binding result in series [1] is recorded as “binds”.

B2: Aptamer-1 core (ssDNA)
DNA: TCGAGTGGCTTGTTTGTAATGTAGGGTTCCGGTCGTGGGT
In the case of B2, in series [1], the binding result is “binds”.

B3: CoV2-RBD-1C (printed as CoV2-RBD-QC in Table 1) (ssDNA)
DNA: CAGCACCGACCTTGTGCTTTGGGAGTGCTGGTCCAAGGGCGTTAATGGACA
As for B3, in series [1], the binding result is recorded as “binds”.

B4: R7-02 hybrid (LGKGDFR peptide-DNA) (ssDNA)
DNA: GGAAGAGATGGCGACACGCAATCGTGGGTTGGGGATATAATGGTAAGCTGATCCTGATGG
modifications: 5'-hexynyl clicked to C-terminal azide-lysine tagged LGKGDFR peptide
Turning to B4, the binding result in series [2] is listed as “no binding”.
